For one assay, the target named is T1, VEGF-C Dimer (Homodimer of two identical chains. The nature of the dimer linkage is not stated in the passages seen.).
T1 construct: a form of m2; also called dimer form of VEGF-C
T1 chain 1: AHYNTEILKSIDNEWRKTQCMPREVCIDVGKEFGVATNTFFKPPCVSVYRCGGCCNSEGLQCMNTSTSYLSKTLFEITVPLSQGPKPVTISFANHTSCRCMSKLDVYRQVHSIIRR
T1 chain 2: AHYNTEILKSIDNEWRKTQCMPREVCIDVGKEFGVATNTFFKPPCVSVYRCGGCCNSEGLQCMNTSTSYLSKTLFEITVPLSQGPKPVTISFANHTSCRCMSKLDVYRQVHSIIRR
Kind of assay: direct binding ELISA, antigen coated as capture antigen, bound VGX-100 detected with rabbit anti-human IgG-HRP, Abs 450 nm. For orientation: An ELISA detects its analyte on a solid surface through an enzyme-linked reagent.

For another assay, the target named is T2, VEGF-C Monomer.
T2 construct: a form of m2; also called monomer form of VEGF-C
T2 chain: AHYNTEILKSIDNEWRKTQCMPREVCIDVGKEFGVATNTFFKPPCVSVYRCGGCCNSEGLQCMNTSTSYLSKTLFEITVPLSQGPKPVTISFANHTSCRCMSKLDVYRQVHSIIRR
Described as above.

For assay [1], the target named is T3, VEGF-C (human, UniProt P49767 103-227, limits assumed).
T3 sequence: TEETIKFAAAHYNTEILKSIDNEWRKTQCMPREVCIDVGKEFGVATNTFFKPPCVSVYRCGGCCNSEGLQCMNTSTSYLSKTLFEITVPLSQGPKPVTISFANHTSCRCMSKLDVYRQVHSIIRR
Briefly: cell-based or functional assay.

Assay [2] has as its target T3, VEGF-C. Briefly: cell-based or functional assay. The source holds these as a separate data set.
Assay [3] concerns the target T3, VEGF-C. Briefly: BiaCore (SPR); format not described.

Experimental findings from patent US20150224191A1 (VEGENICS, published 2015) are described below.

As usually defined, the EC50 (read off the curve) is the midpoint of the concentration-response curve. A lower EC50 (read off the curve) goes with a more potent agent. In general, Kd refers to the concentration at which binding is half-saturated. Read a low Kd as tighter binding.

B1: VEGF-C antibody VGX-100 (antibody, human IgG1, lambda, V domains shown)
VH: EVRLLESGGGLVQPGGSLRLSCAASGFTFRPRAMAWVRQAPGKGLEWVSSISAQGASAYYADSVKGRFTISRDNSKNTLYLQMNSLRAEDTAVYYCARDLSVSGFGPWGRGTMVTVSS
VL: SYELTQPPSSSGTPGQRVTISCSGSSSNIGRHTVSWYQQVPGTAPKLLIYSDDHRPSGVPDRFSASKSGTSASLTITGLQSEDEADYYCAAWDDSLNGPWVFGGGTKLTVLG
In the case of B1, the concentration giving a half-maximal response (EC50 (read off the curve)) with VEGF-C Dimer and with VEGF-C Monomer was roughly 0.001 µg/mL throughout. Further, the “IC50 (read off the curve); [3H]-thymidine incorporation of BA/F3-VEGFR-3/EpoR cells as percent of ligand alone; blocked: VEGF-C binding to VEGFR-3” value with VEGF-C [1] is roughly 0.04 µg/mL. Also, the “IC50 (read off the curve); [3H]-thymidine incorporation of BA/F3-VEGFR-2/EpoR cells as percent of ligand alone; blocked: VEGF-C binding to VEGFR-2” value in the assay with VEGF-C [2] is roughly 0.03 µg/mL. The same molecule registered a Kd with VEGF-C [3] of 1.8 nM.
